Experimental data reported in patent US20210290678A1 (published 2021).

Legend:
[1] = target: T1, human protein tyrosine kinase 7 (PTK7) (human, UniProt Q13308 31-1070); assay: flow cytometry cell binding titration; HCC70 human cells; unit from dose axis
T1 chain: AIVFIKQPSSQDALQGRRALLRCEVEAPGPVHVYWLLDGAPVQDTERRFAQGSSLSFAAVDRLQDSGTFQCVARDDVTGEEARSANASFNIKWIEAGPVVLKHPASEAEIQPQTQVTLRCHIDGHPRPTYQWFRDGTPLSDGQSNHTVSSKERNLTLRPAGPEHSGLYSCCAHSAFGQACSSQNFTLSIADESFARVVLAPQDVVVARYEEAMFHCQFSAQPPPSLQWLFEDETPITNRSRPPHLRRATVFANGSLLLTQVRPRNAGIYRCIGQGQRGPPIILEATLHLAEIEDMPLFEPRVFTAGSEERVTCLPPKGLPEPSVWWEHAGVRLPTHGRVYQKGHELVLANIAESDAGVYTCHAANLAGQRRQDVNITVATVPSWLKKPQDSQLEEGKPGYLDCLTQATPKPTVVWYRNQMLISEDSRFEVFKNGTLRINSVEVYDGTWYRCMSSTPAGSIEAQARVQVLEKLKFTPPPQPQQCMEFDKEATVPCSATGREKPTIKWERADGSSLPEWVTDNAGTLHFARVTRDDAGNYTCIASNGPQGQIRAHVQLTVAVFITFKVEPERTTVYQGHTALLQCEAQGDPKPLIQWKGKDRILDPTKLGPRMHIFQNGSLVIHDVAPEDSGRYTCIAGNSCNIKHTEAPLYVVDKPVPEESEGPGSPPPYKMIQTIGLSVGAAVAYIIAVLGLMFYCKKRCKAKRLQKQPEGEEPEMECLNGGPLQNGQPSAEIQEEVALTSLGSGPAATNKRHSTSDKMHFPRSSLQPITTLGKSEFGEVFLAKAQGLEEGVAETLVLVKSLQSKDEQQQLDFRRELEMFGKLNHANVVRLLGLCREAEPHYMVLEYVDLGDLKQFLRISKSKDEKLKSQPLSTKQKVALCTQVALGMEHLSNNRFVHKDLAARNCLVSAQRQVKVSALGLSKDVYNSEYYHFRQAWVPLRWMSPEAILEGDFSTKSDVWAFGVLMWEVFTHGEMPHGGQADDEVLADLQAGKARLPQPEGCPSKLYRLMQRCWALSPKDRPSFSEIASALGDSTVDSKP

murine PTK7 = target: T2, murine PTK7 (murine, UniProt Q8BKG3 23-1062); assay: flow cytometry cell binding titration; 3T3L1 murine cells; unit from dose axis
T2 chain: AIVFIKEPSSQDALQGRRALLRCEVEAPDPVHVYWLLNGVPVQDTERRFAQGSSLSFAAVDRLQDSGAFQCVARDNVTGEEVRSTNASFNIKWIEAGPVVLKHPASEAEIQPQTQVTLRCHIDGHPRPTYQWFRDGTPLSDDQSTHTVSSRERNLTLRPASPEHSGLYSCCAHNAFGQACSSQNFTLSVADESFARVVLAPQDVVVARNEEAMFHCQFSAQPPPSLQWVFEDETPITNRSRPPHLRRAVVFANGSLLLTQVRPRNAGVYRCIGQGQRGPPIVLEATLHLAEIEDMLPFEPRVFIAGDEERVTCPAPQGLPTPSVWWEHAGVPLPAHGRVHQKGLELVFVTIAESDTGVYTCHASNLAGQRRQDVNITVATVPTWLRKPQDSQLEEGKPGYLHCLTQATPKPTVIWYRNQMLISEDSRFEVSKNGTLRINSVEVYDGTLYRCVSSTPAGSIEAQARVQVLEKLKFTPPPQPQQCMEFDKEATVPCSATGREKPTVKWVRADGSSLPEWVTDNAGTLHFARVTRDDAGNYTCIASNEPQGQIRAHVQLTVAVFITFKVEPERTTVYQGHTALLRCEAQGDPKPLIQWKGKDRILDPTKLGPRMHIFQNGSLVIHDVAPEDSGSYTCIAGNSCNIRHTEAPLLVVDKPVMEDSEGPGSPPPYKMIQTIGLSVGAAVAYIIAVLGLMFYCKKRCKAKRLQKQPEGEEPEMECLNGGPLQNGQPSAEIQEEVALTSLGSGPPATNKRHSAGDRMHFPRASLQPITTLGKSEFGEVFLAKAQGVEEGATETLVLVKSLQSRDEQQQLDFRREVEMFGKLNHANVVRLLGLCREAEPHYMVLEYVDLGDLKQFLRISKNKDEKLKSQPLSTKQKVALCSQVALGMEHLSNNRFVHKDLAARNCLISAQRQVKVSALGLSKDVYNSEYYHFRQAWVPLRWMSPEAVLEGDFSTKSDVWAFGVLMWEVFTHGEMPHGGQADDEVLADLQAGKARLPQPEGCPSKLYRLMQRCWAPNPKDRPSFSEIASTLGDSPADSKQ

B1: CTX181 mAb (custom recombinant monoclonal anti-PTK7 antibody, Creative Biolabs) (antibody, V domains shown)
VH: QVQLVESGGGVVQPGRSLRLSCAASGFTFSSYGMHWVRQAPGKGLEWVAVIWDDGSNKYYVDSVKGRFTISRDNSKNTLYLQMNSLRAEDTAVYYCARDDYYGSGSFNSYYGTDVWGQGTTVTVSS
VL: EIVLTQSPATLSLSPGERATLSCRASQSVSIYLAWYQQKPGQAPRLLIYDASNRATGIPARFSGSGSGTDFTLTISSLEPEDFAVYYCQQRSNWPPFTFGPGTKVDIKR
Work on B1 yielded a Kd [1] of 1.53 nM and a Kd (murine PTK7) of 0.662 nM.
